Laboratory results as given in patent publication US8357518B2, “Thermostable enzymes for the hydrolysis of mannan-containing polysaccharides” (The Board of Trustees of the University of Illinois, priority 2010, dated 2013).

Columns and labels:
Assay type in all cases: biochemical, Caldanaerobius polysaccharolyticus
[1] = substrate: O=[N+]([O-])c1ccc(O[C@@H]2O[C@H](CO)[C@@H](O[C@@H]3O[C@H](CO)[C@@H](O)[C@H](O)[C@H]3O)[C@H](O)[C@H]2O)cc1; experiment: Kinetic properties with pNP-linked sugars (Man5B E137A); conditions: other: Man5B E137A 2 μM, at 10 mM substrate, 65° C., pH 5.5
Procedure: (§1) Determination of kinetic properties for wild type and mutant Man5B with pNP-linked sugars. Kinetic properties of wild type and mutant Man5B were determined for pNP-β-D-mannopyranoside and pNP-β-D-cellobioside. The substrate concentrations ranged from 0.06 to 10 mM and reactions were performed at 65° C. in citrate buffer (50 mM sodium citrate, pH 5.5). The reactions were equilibrated to 65° C. using a thermostated Cary 300 UV-Vis spectrophotometer, and the reactions were initiated by the addition of wild type (5 nM, final concentration) or mutant (2 μM, final concentration) Man5B. The rate of pNP release was determined by continuously monitoring the absorbance at 400 nm. Initial rate data were then plotted against the substrate concentrations, and the values of the Michaelis-Menten constant (KM) and the maximum velocity (Vmax) were estimated from a nonlinear curve fit using GraphPad Prism v5.01 from GraphPad Software (San Diego, Calif.). The kcat was calculated as the quotient of the Vmax and the concentration of enzyme used in the reaction.
(§2) Site-directed mutagenesis. Mutagenesis was carried out using PCR-based […] […]
(§3) Next, to test whether the mutations introduced in Man5B had any effects on the catalytic activity of this enzyme, the catalytic parameters for the wild type and mutant enzymes were determined using pNP-β-D-cellobioside and pNP-β-D-mannopyranoside as substrates.

[2] = substrate: O=[N+]([O-])c1ccc(O[C@@H]2O[C@H](CO)[C@@H](O)[C@H](O)[C@@H]2O)cc1; experiment: as above; conditions: other: Man5B E137A 2 μM, at 10 mM substrate, 65° C., pH 5.5
Procedure: as §1, §2, §3

[3] = substrate: O=[N+]([O-])c1ccc(O[C@@H]2O[C@H](CO)[C@@H](O[C@@H]3O[C@H](CO)[C@@H](O)[C@H](O)[C@H]3O)[C@H](O)[C@H]2O)cc1; experiment: Kinetic properties with pNP-linked sugars (Man5B E258Q); conditions: other: Man5B E258Q 2 μM, at 10 mM substrate, 65° C., pH 5.5
Procedure: as §1, §2, §3

[4] = substrate: O=[N+]([O-])c1ccc(O[C@@H]2O[C@H](CO)[C@@H](O)[C@H](O)[C@@H]2O)cc1; experiment: as above; conditions: other: Man5B E258Q 2 μM, at 10 mM substrate, 65° C., pH 5.5
Procedure: as §1, §2, §3

[5] = substrate: O=[N+]([O-])c1ccc(O[C@@H]2O[C@H](CO)[C@@H](O[C@@H]3O[C@H](CO)[C@@H](O)[C@H](O)[C@H]3O)[C@H](O)[C@H]2O)cc1; experiment: Kinetic properties with pNP-linked sugars (Man5B E137Q); conditions: other: Man5B E137Q 2 μM, 65° C., citrate buffer pH 5.5
Procedure: as §1
(§4) Site-directed mutagenesis. Mutagenesis was carried out using PCR-based […] XL site-directed mutagenesis kit from Stratagene (La Jolla, Calif.) according to the manufacturer's instructions. Mutagenic primers with the desired mutation were designed using the […]® Primer Design Program (Stratagene website) and are listed in Table 1-2). The DNA templates for the PCR amplifications were the pET28a-Man5A-TM1 plasmid and the pET46-Man5B plasmid for generation of the Man5A-TM1 and Man5B mutants, respectively. Following 18 cycles of PCR using Pfu Turbo, the PCR mixture was digested with DpnI at 37° C. for 12 h to remove the parental DNA, and the resulting DNA was transformed into competent E. coli JM109 cells through electroporation. The DNA was sequenced to confirm that there were no PCR-derived nucleotide changes except those introduced by the PCR primers. The mutated genes were then expressed to produce the mutant recombinant proteins. The expression and purification methods were as described above for wild-type Man5A-TM1 and Man5B.
as §3

[6] = substrate: O=[N+]([O-])c1ccc(O[C@@H]2O[C@H](CO)[C@@H](O)[C@H](O)[C@@H]2O)cc1; experiment: as above; conditions: other: Man5B E137Q 2 μM, at 10 mM substrate, 65° C., pH 5.5
Procedure: as §1, §4, §3

[7] = substrate: O=[N+]([O-])c1ccc(O[C@@H]2O[C@H](CO)[C@@H](O[C@@H]3O[C@H](CO)[C@@H](O)[C@H](O)[C@H]3O)[C@H](O)[C@H]2O)cc1; experiment: Kinetic properties with pNP-linked sugars (Man5B E258A); conditions: other: Man5B E258A 2 μM, at 10 mM substrate, 65° C., pH 5.5
Procedure: as §1, §2, §3

[8] = substrate: O=[N+]([O-])c1ccc(O[C@@H]2O[C@H](CO)[C@@H](O)[C@H](O)[C@@H]2O)cc1; experiment: as above; conditions: other: Man5B E258A 2 μM, at 10 mM substrate, 65° C., pH 5.5
Procedure: as §1, §2, §3

B1: Caldanaerobius polysaccharolyticus endo-β-mannanase Man5B (SEQ ID NO: 31) variant E137A (Caldanaerobius polysaccharolyticus; E137A) (protein)
chain: MKKYGFNFQWMYVWEEGREPEPPDKKALDFLAETGFNFVRIPVDYRFWTRNFDYFNPDKKVFEYIDLYLRECSARNIHMCLNLHRAPGYCINRNDIERDNLWLDKRAQDGFVYQWELFAKRYKGVSSKFLSFDLVNAPPNIGQYGLTRENHASLIIRTVEAIRKIDPDREIVIDGLGGGNIAMPELAHLGVVHSGRGYQPMALTHYQASWWDGHKGLPEPYYPDLLWQGKVWNKDTLREYYKPWRDLQQKGVNVHIGEFGCFNKTSNDVAIRWFEDVLSLYKEFEWGYSLWNFKGPFGIVEHGRPGAKYEYYRGFKVDRELLDLLVENRV
[1]
  kcat: 0.011 ± 0.004 s⁻¹
[2]
  kcat: 0.019 ± 0.001 s⁻¹

B2: Caldanaerobius polysaccharolyticus endo-β-mannanase Man5B (SEQ ID NO: 31) variant E258Q (Caldanaerobius polysaccharolyticus; E258Q) (protein)
chain: MKKYGFNFQWMYVWEEGREPEPPDKKALDFLAETGFNFVRIPVDYRFWTRNFDYFNPDKKVFEYIDLYLRECSARNIHMCLNLHRAPGYCINRNDIERDNLWLDKRAQDGFVYQWELFAKRYKGVSSKFLSFDLVNEPPNIGQYGLTRENHASLIIRTVEAIRKIDPDREIVIDGLGGGNIAMPELAHLGVVHSGRGYQPMALTHYQASWWDGHKGLPEPYYPDLLWQGKVWNKDTLREYYKPWRDLQQKGVNVHIGQFGCFNKTSNDVAIRWFEDVLSLYKEFEWGYSLWNFKGPFGIVEHGRPGAKYEYYRGFKVDRELLDLLVENRV
[3]
  kcat: 0.012 ± 0.004 s⁻¹
[4]
  kcat: 0.012 ± 0.002 s⁻¹

B3: Caldanaerobius polysaccharolyticus endo-β-mannanase Man5B (SEQ ID NO: 31) variant E137Q (Caldanaerobius polysaccharolyticus; E137Q) (protein)
chain: MKKYGFNFQWMYVWEEGREPEPPDKKALDFLAETGFNFVRIPVDYRFWTRNFDYFNPDKKVFEYIDLYLRECSARNIHMCLNLHRAPGYCINRNDIERDNLWLDKRAQDGFVYQWELFAKRYKGVSSKFLSFDLVNQPPNIGQYGLTRENHASLIIRTVEAIRKIDPDREIVIDGLGGGNIAMPELAHLGVVHSGRGYQPMALTHYQASWWDGHKGLPEPYYPDLLWQGKVWNKDTLREYYKPWRDLQQKGVNVHIGEFGCFNKTSNDVAIRWFEDVLSLYKEFEWGYSLWNFKGPFGIVEHGRPGAKYEYYRGFKVDRELLDLLVENRV
[5]
  Km: (2.9 ± 0.9) × 10^−1 mM
  kcat: 0.047 ± 0.01 s⁻¹
  kcat/Km: 160 ± 60 M⁻¹ s⁻¹
[6]
  kcat: 0.018 ± 0.006 s⁻¹

B4: Caldanaerobius polysaccharolyticus endo-β-mannanase Man5B (SEQ ID NO: 31) variant E258A (Caldanaerobius polysaccharolyticus; E258A) (protein)
chain: MKKYGFNFQWMYVWEEGREPEPPDKKALDFLAETGFNFVRIPVDYRFWTRNFDYFNPDKKVFEYIDLYLRECSARNIHMCLNLHRAPGYCINRNDIERDNLWLDKRAQDGFVYQWELFAKRYKGVSSKFLSFDLVNEPPNIGQYGLTRENHASLIIRTVEAIRKIDPDREIVIDGLGGGNIAMPELAHLGVVHSGRGYQPMALTHYQASWWDGHKGLPEPYYPDLLWQGKVWNKDTLREYYKPWRDLQQKGVNVHIGAFGCFNKTSNDVAIRWFEDVLSLYKEFEWGYSLWNFKGPFGIVEHGRPGAKYEYYRGFKVDRELLDLLVENRV
[7]
  kcat: 0.011 ± 0.001 s⁻¹
[8]
  kcat: 0.018 ± 0.003 s⁻¹
